The record followed here is publication PMC6602975.

Assay [1] concerns the target H4K16ac nucleosome (X. laevis | not stated). As to the kind of experiment: native gel or EMSA; increasing amounts of Orc1 or Sir3 proteins with 50 or 25 nM nucleosomes; 10 mM Tris pH 7.5, 50 mM NaCl, 2.5% glycerol, 1 mM DTT; room temperature, 30 min; native PAGE 6% (Sir3) or 8% (Orc1), 0.2X TBE; decrease of free nucleosome; apparent KD from a Hill fit.
The target of assay [2] is Unmodified nucleosome core particle (X. laevis histone octamer on 147 bp Widom-601 DNA) (X. laevis). The assay is described as above.

Sequence of Wild-type Orc1 (1–214) BAH domain (P54784 1-214): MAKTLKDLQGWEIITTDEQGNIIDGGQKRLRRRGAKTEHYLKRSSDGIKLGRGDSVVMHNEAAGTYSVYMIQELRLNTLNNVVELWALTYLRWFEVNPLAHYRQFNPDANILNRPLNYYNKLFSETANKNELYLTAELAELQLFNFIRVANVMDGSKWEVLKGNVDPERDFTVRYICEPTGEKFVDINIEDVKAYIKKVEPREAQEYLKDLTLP

For “Wild-type Orc1 (1–214) BAH domain (from UniProt P54784 1-214) (domain or fragment)”, the Kd amounted to 1500 nM in assay [1] and 1300 nM in assay [2].
